PMC10767048 (Nature Communications, 2024)

Target: GPC trimer Enc nanoparticle (Lassa GPC trimer-SpyTag coupled to encapsulin-SpyCatcher) (Lassa virus, Mouse/Sierra …, stabilised)
Assay: BLI
Conditions: both partners purified

B1: Fab of human LASV neutralizing antibody 37.7H (Fab, V domains shown)
VH: EVQLVQSGGGLVKAGGSLRLSCAASGFTFSTYSMNWIRQAPGKGLEWVASISSRSGSHINYVDSVKGRFTISRDNARDLLYLQMNSLRVDDSALYYCARDRRSGTSPLPLDVWGQGTTVTVFS
VL: QSALTQPASVSGSPGQSITISCTGTGSDIGGYNFVSWYQQYPGKAPKLIIYEVRIRASGVSNRFSGSKSGNTASLTISGLQAEDEADYYCNSYSIHSPWVFGGGTKLTVL
Kd: < 1 pM | koff: < 1e-07 s⁻¹ | kon: 81100 M⁻¹ s⁻¹
